# Test results from US20140341881A1.
# Tests used:
# [1] = target: human neutrophil elastase (HNE) (human) (UniProt P08246); experiment: cell-based or functional assay
# [2] = target: human plasma kallikrein (PK) (human) (UniProt P03952); experiment: cell-based or functional assay
# Chain of human plasma kallikrein (PK) (human) (P03952 20-638 limits assumed): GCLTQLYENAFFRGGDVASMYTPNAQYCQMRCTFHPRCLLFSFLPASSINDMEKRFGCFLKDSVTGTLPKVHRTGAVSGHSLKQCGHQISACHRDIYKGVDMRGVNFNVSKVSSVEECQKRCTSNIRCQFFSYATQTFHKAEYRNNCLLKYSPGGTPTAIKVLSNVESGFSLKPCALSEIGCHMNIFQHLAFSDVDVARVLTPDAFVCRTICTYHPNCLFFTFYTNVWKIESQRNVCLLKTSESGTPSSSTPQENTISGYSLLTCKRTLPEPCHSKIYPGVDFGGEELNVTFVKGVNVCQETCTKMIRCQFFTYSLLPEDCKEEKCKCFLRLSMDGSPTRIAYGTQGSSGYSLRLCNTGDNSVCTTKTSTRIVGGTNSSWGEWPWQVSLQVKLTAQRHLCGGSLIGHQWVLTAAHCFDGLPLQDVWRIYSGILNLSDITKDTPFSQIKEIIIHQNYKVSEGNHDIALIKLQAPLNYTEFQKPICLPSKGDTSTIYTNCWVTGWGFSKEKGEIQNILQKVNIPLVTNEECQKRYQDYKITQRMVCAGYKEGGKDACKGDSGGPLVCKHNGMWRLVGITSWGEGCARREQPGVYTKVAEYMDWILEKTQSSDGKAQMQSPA
# Chain of human neutrophil elastase (HNE) (human) (P08246 30-247 limits assumed): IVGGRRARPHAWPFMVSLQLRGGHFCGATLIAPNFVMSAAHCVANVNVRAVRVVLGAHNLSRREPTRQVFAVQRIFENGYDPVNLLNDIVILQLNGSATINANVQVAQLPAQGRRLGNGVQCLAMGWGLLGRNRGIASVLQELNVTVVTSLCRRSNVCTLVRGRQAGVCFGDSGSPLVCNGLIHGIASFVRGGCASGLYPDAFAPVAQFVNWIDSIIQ
substance,measurement,setting,value
rACTWT (recombinant wild type alpha-1-antichymotrypsin) (from UniProt P01011 24-423),% Inhibition,[1],26%
same,INHIBITION %,[1],15%
same,Percentage inhibition,[1],16%
same,% Inhibition,[2],46%
same,INHIBITION %,[2],0%
same,Percentage inhibition,[2],46%
